Changes are numbered by the printed parent chain.
B1: ISOP193ER9P1B5 (designed binder, not shown: small tags and cut ends)
chain: LPAPKNLVVSRVTEDSARLSWTAPDAAFDSFAIQYQEYVAHGEAIVLTVPGSERSYDLTGLKPGTEYHVRISGVKGGGVSWPLSAIVTT
B2: ISOP193ER9P1E4 (designed binder, not shown: small tags and cut ends)
chain: B1 chain with Q34I, A40K, H41S, S72G, G78L, V79L, W81L, V87F
B3: ISOP193ER9P1H2 (designed binder, not shown: small tags and cut ends)
chain: LPAPKNLVVSRVTEDSARLSWTAPDAAFDSFRISYLEDVYYGEAIVLTVPGSERSYDLTGLKPGTEYHVGIHGVKGGIDSFPLSAIFTT
B4: ISOP193GR9P1A7 (designed binder, not shown: small tags and cut ends)
chain: LPAPKNLVVSRVTEDSARLSWTAPDAAFDSFAIFYHEFANPGEAIDLPVPGSERSYDLTGLKPGTEYDVRIYGVKGGTASIPLDAEFTT
B5: ISOP193FR9P1A5 (designed binder, not shown: small tags and cut ends)
chain: LPAPKNLVVSRVTEDSARLSWTAPDAAFDSFEIYYIEPIAPGEAIVLTVPGSERSYDLTGLKPGTEYWVTIYGVKGCDWSDPLSAIFTT
B6: ISOP193FR9P1E10 (designed binder, not shown: small tags and cut ends)
chain: B5 chain with A23T, E32H, Y34H, I36L, P38G, I39E, A40W, P41G, W68L
B7: ISOP193FR9P1G11 (designed binder, not shown: small tags and cut ends)
chain: B5 chain with E32T, I36F, P38N, I39E, A40N, P41G, W68L
B8: ISOP193FR9P1G8 (designed binder, not shown: small tags and cut ends)
chain: B5 chain with I36F, P38N, I39E, A40L, P41G, W68L
B9: ISOP193FR9P1D7 (designed binder, not shown: small tags and cut ends)
chain: B5 chain with I36A, P38Y, I39F, A40K, P41N, W68L, F87S
B10: ISOP193FR9P1C9 (designed binder, not shown: small tags and cut ends)
chain: B5 chain with E32Q, I36F, P38W, I39V, A40V, P41G, W68L
B11: ISOP193FR9P1G9 (designed binder, not shown: small tags and cut ends)
chain: B5 chain with V8F, E32Q, I36R, P38Q, I39W, A40W, P41D, W68L
B12: ISOP193FR9P1C5 (designed binder, not shown: small tags and cut ends)
chain: B5 chain with E32H, I36L, P38Q, I39Y, A40S, P41R, W68L
B13: ISOP193FR9P1F8 (designed binder, not shown: small tags and cut ends)
chain: B5 chain with E32D, Y34N, I36F, P38N, I39E, A40L, P41G, W68L
B14: ISOP193FR9P1D5 (designed binder, not shown: small tags and cut ends)
chain: B5 chain with E32Y, Y34R, P38D, I39V, A40D, P41F, W68L
B15: ISOP193FR9P1C1 (designed binder, not shown: small tags and cut ends)
chain: B5 chain with I36F, P38N, I39E, A40N, P41G, W68L
B16: ISOP193FR9P1G7 (designed binder, not shown: small tags and cut ends)
chain: B5 chain with E32H, Y34H, I36L, P38G, I39E, A40W, P41G, W68L

Each binder was assayed against extracellular domain of human CD137 on the surface of CHO-K1 cells (human, UniProt Q07011 24-186) (assay: flow cytometry on CHO-K1 cells with human CD137 ECD).
Description: Cell surface binding was analyzed via flow cytometry. Cenyrins were prepared at a maximal concentration of 500 nM in the presence of 125 nM anti His-mIgG1 antibody and then serially diluted in PBS/1% FCS buffer. Samples were then applied to approx 100 000 CHO-Kl cells expressing the extracellular domain of human CD137 on their surface. Unbound Centyrin/Antibody complexes were washed away and bound FN3 domains were detected by the addition of goat anti mouse-FITC labeled antibody. Samples were then aquired by flow cytometry. Subsequently, Mean flurescence intensity was plotted against the log Centyrin concentration and EC50 values were calculated by nonlinear regression using GraphPad Prism.

EC50 [nM] | Binder
7.34 | B1
279 | B2
27.5 | B3
606 | B4

These binders were tested against T1, recombinant biotinylated CD137 protein (Fc-fusion protein, R&D Systems 838-4B) (human, UniProt Q07011 24-186, biotinylated, sites not stated) (assay: ELISA, lysate on biotinylated CD137-Fc).
T1 construct: Bought Fc fusion; also called CD137-Fc
Outline: (§1)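 Biotinylated CD137-Fc, an unrelated Fc-fusion protein or human serum albumin captured 1 h on streptavidin plates blocked in Starting Block T20; diluted bacterial lysate applied 1 h. Bound binders detected with HRP-conjugated anti-Centyrin antibody (PAB25) for 1 h, then POD substrate read-out.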

ELISA CD137 (RLU) | Binder
9.07e+06 | B5
2.05e+06 | B6
1.08e+07 | B7
1.45e+07 | B8
2.2e+06 | B9
1.23e+07 | B10
1.28e+07 | B11
8.66e+06 | B12
8.57e+06 | B13
6.05e+06 | B14
1.41e+07 | B15
5.5e+06 | B16
1.27e+07 | B1
1.26e+07 | B2
5.18e+06 | B3
2.15e+06 | B4

What follows are binders tested against unrelated Fc-fused recombinant protein (assay: ELISA, negative control Fc protein).

ELISA Fc Control (RLU) | Binder
95100 | B5
133000 | B6
60600 | B7
25100 | B8
15000 | B9
21000 | B10
33600 | B11
79300 | B12
25700 | B13
51700 | B14
36800 | B15
42300 | B16
1200 | B1
1680 | B2
1360 | B3
1040 | B4

What follows are binders tested against T2, human serum albumin (human, UniProt P02768 25-609) (assay: ELISA, negative control HSA).
T2 construct: Negative control of the ELISA; also called HSA
T2 sequence (P02768 25-609 limits assumed): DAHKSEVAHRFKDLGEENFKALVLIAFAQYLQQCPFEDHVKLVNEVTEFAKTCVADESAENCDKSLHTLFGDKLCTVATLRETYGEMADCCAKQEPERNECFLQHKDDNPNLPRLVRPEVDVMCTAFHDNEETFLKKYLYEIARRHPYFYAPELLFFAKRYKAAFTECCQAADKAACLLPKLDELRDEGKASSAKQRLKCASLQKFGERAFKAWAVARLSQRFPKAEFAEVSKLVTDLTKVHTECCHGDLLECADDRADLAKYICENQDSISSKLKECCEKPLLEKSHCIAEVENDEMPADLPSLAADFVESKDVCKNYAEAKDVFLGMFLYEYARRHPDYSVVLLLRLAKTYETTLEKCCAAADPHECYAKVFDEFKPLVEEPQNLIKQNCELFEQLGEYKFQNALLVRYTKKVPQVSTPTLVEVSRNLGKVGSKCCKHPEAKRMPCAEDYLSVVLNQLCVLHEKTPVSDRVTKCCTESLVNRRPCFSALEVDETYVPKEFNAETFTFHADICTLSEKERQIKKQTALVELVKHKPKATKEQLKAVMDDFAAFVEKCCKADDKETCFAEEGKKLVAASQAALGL
Outline: as §1

ELISA HSA (RLU) | Binder
400 | B1
480 | B2
560 | B3
480 | B4

Each binder was assayed against human serum albumin (human) (UniProt P02768) (assay: ELISA, negative control HSA).
Chain of human serum albumin (human) (P02768 25-609 limits assumed): as above

ELISA HSA (RLU) | Binder
26200 | B5
31000 | B6
11000 | B7
5040 | B8
2640 | B9
4000 | B10
6800 | B11
19200 | B12
5040 | B13
10800 | B14
8160 | B15
11000 | B16
